# Patent US20250277030A1, “ANTI-NAPI2B ANTIBODIES AND METHODS OF USE” (Zymeworks BC Inc., priority 2022, published 2025)
# Positions count from the first letter of the chain named.
# T1: NaPi2b expressed on IGROV-1 cells (Homo sapiens, UniProt O95436)
# T1 construct: IGROV-1 cells express endogenous NaPi2b at a high level; endogenous in cells; host or cells: IGROV-1
# T1 sequence (O95436 1-690): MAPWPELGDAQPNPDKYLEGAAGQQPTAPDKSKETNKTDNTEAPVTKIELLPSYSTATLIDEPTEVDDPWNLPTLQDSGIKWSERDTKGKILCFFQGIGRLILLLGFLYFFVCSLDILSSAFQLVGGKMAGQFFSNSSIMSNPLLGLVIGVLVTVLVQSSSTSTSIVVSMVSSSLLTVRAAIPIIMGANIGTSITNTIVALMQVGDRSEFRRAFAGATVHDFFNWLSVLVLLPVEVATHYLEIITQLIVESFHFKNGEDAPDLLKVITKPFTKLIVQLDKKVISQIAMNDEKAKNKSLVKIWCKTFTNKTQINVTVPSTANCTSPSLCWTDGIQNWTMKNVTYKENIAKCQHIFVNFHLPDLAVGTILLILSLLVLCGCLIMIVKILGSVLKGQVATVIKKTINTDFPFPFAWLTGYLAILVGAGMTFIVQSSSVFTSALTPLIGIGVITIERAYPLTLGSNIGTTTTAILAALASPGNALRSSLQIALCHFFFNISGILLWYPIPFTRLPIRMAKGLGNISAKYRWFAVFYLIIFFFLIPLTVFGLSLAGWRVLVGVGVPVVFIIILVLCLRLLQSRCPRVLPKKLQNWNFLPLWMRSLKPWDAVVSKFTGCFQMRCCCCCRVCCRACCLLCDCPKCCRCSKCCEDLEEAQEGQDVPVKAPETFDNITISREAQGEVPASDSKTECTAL
# B1: v29451: humanized anti-NaPi2b IgG1/kappa antibody H2L3; VH SEQ ID NO:25, VL SEQ ID NO:30 (antibody, V domains shown)
# VH: QVQLVQSGAEVKKPGASVKVSCKASGFTFTSYNVHWVRQAPGQGLEWIAAISPGNGDLSYAQKFQGRVTMTVDTSTSTVYMELSSLRSEDTAVYYCARGRTGMGAVDYWGQGTLVTVSS
# VL: DVQMTQSPSSLSASVGDRVTITCRASQDVYSYLNWYQQKPGKAVKLLIYYTSRLQSGVPSRFSGSGSGTDYTLTISSLQPEDIATYYCQQYNIFPWTFGQGTKLEIK
# modifications: v29451, v29455, v29459 VH (H2); v29449, v29450, v29451, v29452 VL (L3)
# B2: v29459: humanized anti-NaPi2b IgG1/kappa antibody H2L1; VH SEQ ID NO:25, VL SEQ ID NO:28 (antibody, V domains shown)
# VH: B1 VH
# VL: B1 VL with V2I, V44P, Y71F, I83F
# modifications: v29451, v29455, v29459 VH (H2); v29457, v29458, v29459, v29460 VL (L1)
# B3: v29460: humanized anti-NaPi2b IgG1/kappa antibody H1L1; VH SEQ ID NO:24, VL SEQ ID NO:28 (antibody, V domains shown)
# VH: B1 VH with I48M, A49G, V72R
# VL: B1 VL with V2I, V44P, Y71F, I83F
# modifications: v29452, v29456, v29460 VH (H1); v29457, v29458, v29459, v29460 VL (L1)
# B4: v29450: humanized anti-NaPi2b IgG1/kappa antibody H3L3; VH SEQ ID NO:26, VL SEQ ID NO:30 (antibody, V domains shown)
# VH: B1 VH with V20M, V68A, M70L, V79A
# VL: B1 VL
# modifications: v29450, v29454, v29458 VH (H3); v29449, v29450, v29451, v29452 VL (L3)
# B5: v29454: humanized anti-NaPi2b IgG1/kappa antibody H3L2; VH SEQ ID NO:26, VL SEQ ID NO:29 (antibody, V domains shown)
# VH: B1 VH with V20M, V68A, M70L, V79A
# VL: B1 VL with I83F
# modifications: v29450, v29454, v29458 VH (H3); v29453, v29454, v29455, v29456 VL (L2)
# B6: v29458: humanized anti-NaPi2b IgG1/kappa antibody H3L1; VH SEQ ID NO:26, VL SEQ ID NO:28 (antibody, V domains shown)
# VH: B1 VH with V20M, V68A, M70L, V79A
# VL: B1 VL with V2I, V44P, Y71F, I83F
# modifications: v29450, v29454, v29458 VH (H3); v29457, v29458, v29459, v29460 VL (L1)
# B7: v29455: humanized anti-NaPi2b IgG1/kappa antibody H2L2; VH SEQ ID NO:25, VL SEQ ID NO:29 (antibody, V domains shown)
# VH: B1 VH
# VL: B1 VL with I83F
# modifications: v29451, v29455, v29459 VH (H2); v29453, v29454, v29455, v29456 VL (L2)
# B8: v29453: humanized anti-NaPi2b IgG1/kappa antibody H4L2; VH SEQ ID NO:27, VL SEQ ID NO:29 (antibody, V domains shown)
# VH: B1 VH with V20M, V68A, M70L, T74R, V79A
# VL: B1 VL with I83F
# modifications: v29449, v29453, v29457 VH (H4); v29453, v29454, v29455, v29456 VL (L2)
# B9: v29449: humanized anti-NaPi2b IgG1/kappa antibody H4L3; VH SEQ ID NO:27, VL SEQ ID NO:30 (antibody, V domains shown)
# VH: B1 VH with V20M, V68A, M70L, T74R, V79A
# VL: B1 VL
# modifications: v29449, v29453, v29457 VH (H4); v29449, v29450, v29451, v29452 VL (L3)
# B10: v29457: humanized anti-NaPi2b IgG1/kappa antibody H4L1; VH SEQ ID NO:27, VL SEQ ID NO:28 (antibody, V domains shown)
# VH: B1 VH with V20M, V68A, M70L, T74R, V79A
# VL: B1 VL with V2I, V44P, Y71F, I83F
# modifications: v29449, v29453, v29457 VH (H4); v29457, v29458, v29459, v29460 VL (L1)
# Biological target: T1, NaPi2b expressed on IGROV-1 cells
# Test: Cellular binding of bivalent antibodies to IGROV-1 cells by flow cytometry (Example 13)
# Settings: IGROV-1, 24 hours at 4° C.; NB = no cellular binding
# Protocol: IGROV-1 cells express endogenous NaPi2b at a high level.
# Briefly, cells were seeded at 50,000 cells/well in conical-bottom 96-well plates and treated with test antibody for 24 hours at 4° C. to prevent internalization. Palivizumab (anti-RSV antibody, v22277) was included as a negative control. […] Following incubation, cells were washed and stained with anti-Human IgG Fc AF647 conjugate (Jackson Immuno Research Labs, West Grove, PA; Cat. No. 109-605-098) at 4° C. for 30 min. Following incubation and washing, fluorescence was detected by flow cytometry on a BD LSRFortessa™ Cell Analyzer (BD Biosciences, Franklin Lake, NJ) with 1,000 minimum events collected per well. The AF647/APC-A GeoMean (fluorescence signal geometric mean, proportional to anti-Human AF647 binding) was calculated for the live cell population using FlowJo™ Version 10.8.1 (BD Biosciences, Franklin Lake, NJ) and plotted for each test antibody using GraphPad Prism Version 9 (GraphPad Software, San Diego, CA).
Bmax (MFI),Curve Hill Slope (h),Molecule
"46,170 MFI",1.1,B1
"40,941 MFI",1.2,B2
"40,071 MFI",1.2,B3
"43,809 MFI",1.2,B4
"42,278 MFI",1.0,B5
"40,793 MFI",1.1,B6
"41,917 MFI",1.1,B7
"44,480 MFI",1.2,B8
"44,460 MFI",1.3,B9
"44,539 MFI",1.0,B10

# Tested on: not listed separately
# Test: Thermal stability by differential scanning calorimetry (DSC)
# Format: physicochemical
# Settings: 0.4 mg/mL in PBS, scan 20° C. to 100° C. at 60° C./hr
# Protocol: The thermal stability of the humanized antibody variants was assessed by differential scanning calorimetry (DSC) as described below.
# 400 μL of purified samples primarily at concentrations of 0.4 mg/mL in PBS were used for DSC analysis with a VP-Capillary DSC (Malvern Panalytical Inc., Westborough, MA). At the start of each DSC run, 5 buffer blank injections were performed to stabilize the baseline, and a buffer injection was placed before each sample injection for referencing. Each sample was scanned from 20° C. to 100° C. at a 60° C./hr rate, with low feedback, 8 sec filter, 3 min pre-scan thermostat, and 70 psi nitrogen pressure. The resulting thermograms were referenced and analyzed using Origin 7 software (OriginLab Corporation, Northampton, MA) to determine melting temperature (Tm) as an indicator of thermal stability.
row,Molecule,Fab Tm [°C]
1,B1,83.0
2,B2,83.1
3,B3,80.3
4,B4,81.0
5,B5,79.7
6,B6,81.6
7,B7,81.5
8,B8,78.9
9,B9,80.0
10,B10,80.5
